Target: ATG8CL (recombinant, purified) (potato)
Experiment: ITC

Sequence of ATG8CL (recombinant, purified) (potato) (M1C146 whole entry): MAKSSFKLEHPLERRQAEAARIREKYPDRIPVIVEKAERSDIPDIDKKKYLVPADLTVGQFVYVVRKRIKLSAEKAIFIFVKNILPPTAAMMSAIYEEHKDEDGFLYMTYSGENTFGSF

Substance Rab3GAPL AIM peptide (Rab3GAPL-AIMp) has a Kd of 962 nM and a stoichiometry N of 1.03.

Reference: paper doi:10.1101/2023.07.03.547386
